Test results as given in US20090092640A1 (UNIVERSITY OF CHICAGO, published 2009).

Target: T1, mutant murine LIGHT (a.a. 79-82, EKLI, deleted), expressed on the cell surface (murine, UniProt Q9QYH9 1-239)
T1 construct: The deletion of a.a; 79-82 is written as two ranges of the natural protein; also called mutant LIGHT; LIGHT^m
T1 sequence: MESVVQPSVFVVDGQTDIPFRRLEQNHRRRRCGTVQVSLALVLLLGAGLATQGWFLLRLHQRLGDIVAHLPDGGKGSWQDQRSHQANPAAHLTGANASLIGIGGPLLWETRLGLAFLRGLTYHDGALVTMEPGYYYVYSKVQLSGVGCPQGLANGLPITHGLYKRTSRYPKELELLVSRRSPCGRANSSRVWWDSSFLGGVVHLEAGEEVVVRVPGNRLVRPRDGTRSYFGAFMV
Test: flow cytometry and fluorescence microscopy, 293 cells expressing mutant murine LIGHT, stained with murine LTbR-Ig and a labelled anti-Ig
Procedure: 293 cells, a human kidney cell line, are commonly and easily used for transient expression of gene at relative high level of gene. 293 cells were seeded in 6 well plate and transfected with 2 μg DNA of pAdCMVmLIGHT (wild type murine LIGHT), pAdCMVmmLIGHT (mutant murine LIGHT) or pAdCMVcommLIGHT (codon optimized mutant murine LIGHT by GNENART, Berlin, Germany). Codon modification is to optimize gene codon to allow higher expression of protein without changing protein sequences. Transfection was performed using Lipofectmin 2000 reagent. 48 hours after transfection, cells were detached and incubated with recombinant mLTbR-huFc protein (10 μg/ml) followed by staining with PE conjugated Donkey anti-human IgG antisera. Cells were washed and analyzed by flowcytometry (BD FACSArray Bioanalyzer). Transfection were carried out in triplicates and only one representative result is shown. […] Cells were also examined visually by fluorescent microscopy. Representative results are shown in lower panel. (see FIG. 18). High expression of LIGHT is required to have stronger response. However, protease digestion of LIGHT often reduces its stability on cell surface.

B1: recombinant mLTbR-huFc protein (Fc fusion, mouse, UniProt P50284 31-223, looked up)
chain: QLVPPYRIENQTCWDQDKEYYEPMHDVCCSRCPPGEFVFAVCSRSQDTVCKTCPHNSYNEHWNHLSTCQLCRPCDIVLGFEEVAPCTSDRKAECRCQPGMSCVYLDNECVHCEEERLVLCQPGTEAEVTDEIMDTDVNCVPCKPGHFQNTSSPRARCQPHTRCEIQGLVEAAPGTSYSDTICKNPPEPGAMLL
notes: also called mouse LTbR-Ig; murine LTbR-Ig; not shown: human Fc
Q: Does B1 bind?
A: binds
